From patent US20090311271A1

Tests used:
[1] = molecular target: purified recombinant human LOX1 comprised of the extracellular domain (ECD) of human LOX-1 (amino acids 61-273) with an N-terminal polyhistidine tag (human) (UniProt P78380); experiment: AlphaScreen competition on His-LOX-1, unlabelled competitor titrated; labelled ligand biotin-CRP (1 ug/ml) with His-LOX-1 (1 ug/ml) by the panel list of paragraph 265; later sentences of paragraph 265 cite 2B and 2C the other way and the sheet prints no title
[2] = molecular target: human LOX-1 expressed on the cell surface (human) (UniProt P78380); experiment: flow cytometry: DI-oxLDL (0-100 ug/ml) on CHO/LOX-1 cells, 60 min at 4 C; y axis MFI Signal
[3] = molecular target: human LOX-1 expressed on the cell surface (human) (UniProt P78380); experiment: flow cytometry, DI-oxLDL on CHO/LOX-1 cells
[4] = molecular target: human LOX-1 expressed on the cell surface (human) (UniProt P78380); experiment: flow cytometry: DI-oxLDL (0-100 ug/ml) on CHO/LOX-1 cells, 60 min at 4 C, MFI

IC50 (read off the curve) [1]: 0.2 µg/mL
Bmax [2]: 96.6
Kd [3]: 22 µg/mL
Kd [4]: 22 µg/mL
Substance: Human oxidized LDL
